Laboratory results: IntAct's records for PubMed 31254514

B1: Beta-crystallin A4 (Homo sapiens), P53673 (parent)
chain: MTLQCTKSAGPWKMVVWDEDGFQGRRHEFTAECPSVLELGFETVRSLKVLSGAWVGFEHAGFQGQQYILERGEYPSWDAWGGNTAYPAERLTSFRPAACANHRDSRLTIFEQENFLGKKGELSDDYPSLQAMGWEGNEVGSFHVHSGAWVCSQFPGYRGFQYVLECDHHSGDYKHFREWGSHAPTFQVQSIRRIQQ
partner: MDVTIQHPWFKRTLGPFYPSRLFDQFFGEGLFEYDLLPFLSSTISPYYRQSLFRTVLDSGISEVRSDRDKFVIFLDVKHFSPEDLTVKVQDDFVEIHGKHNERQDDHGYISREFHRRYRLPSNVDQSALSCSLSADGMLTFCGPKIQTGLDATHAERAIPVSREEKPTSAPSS
B2: Beta-crystallin A4 (Homo sapiens), P53673 (parent)
chain: B1 chain
partner: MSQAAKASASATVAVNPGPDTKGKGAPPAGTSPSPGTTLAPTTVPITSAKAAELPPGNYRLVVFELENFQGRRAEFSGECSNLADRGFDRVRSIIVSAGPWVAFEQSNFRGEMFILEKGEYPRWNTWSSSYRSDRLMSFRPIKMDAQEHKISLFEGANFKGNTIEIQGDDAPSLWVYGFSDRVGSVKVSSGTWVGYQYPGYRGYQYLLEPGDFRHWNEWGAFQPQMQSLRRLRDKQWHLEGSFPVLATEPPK

Variants of: B1
Details: with cryaa_human CRYAA

| effect of a mutation on the interaction | Variant |
| --- | --- |
| increasing interaction strength | G64W |

Variants of: B2
Details: with crbb1_human CRYBB1, P53674

| effect of a mutation on the interaction | Variant |
| --- | --- |
| disrupting interaction strength | G64W |
